For data set [1], the system named is chymotrypsin enzyme. Description: In vitro enzyme resistance (chymotrypsin) of HIM2 and its complexes. The following applies: chymotrypsin digest, 37° C., pH about 7.4.
Method: Lyophilized chymotrypsin enzyme was resuspended in 1 mM HCl to a concentration of 7.53 U/mL. A 1.53 mL aliquot of each sample was added to sample tubes and 0.850 mL into control tubes. Samples were tested in duplicate along with four control tubes per sample. […] Then 17 μL of chymotrypsin enzyme was added to each sample tube. Five μL of 1 mM HCl was added to each control tube. Immediately following the additions, 200 μL was removed from the sample and the control tubes and placed into 50 μL of 1% TFA previously aliquoted out into centrifuge tubes. This sample serves as T=0.
(§1) The control procedure was repeated at the following intervals: 0, 8, 15, 30 minutes. For T-type and R-type samples, the procedure was repeated at the following intervals: 0, 5, 8, 12, 30, 40 and 60 minutes. The control procedure for the Zn complexes was repeated at the following intervals: 0, 12, 40 and 60 minutes. Samples were stored at −20° C. until analysis can occur via HPLC. HPLC was performed to determine percent degradation relative to the respective T=0 minute for each digest. The natural log of the percent remaining was plotted versus time and a linear regression run for each digest. The half life was calculated using the equation: t=−0.693/slope.
A further data set has as its system male CF-1 mice. Put plainly: Extended Mouse Blood Glucose Assay (MBGA). It is filed as in vivo. The following applies: subcutaneous. Here is the method:
Six paired-dose groups of 5 male CF-1 mice (Charles River Laboratories; 25-30 g) received subcutaneous injections of either the insulin compound conjugate (test article) or recombinant human insulin. The test article was reconstituted with phosphate buffer (0.01 M, a pH of about 7.4) containing 0.1% w/w bovine serum albumin and dosed at 100, 66.6, 43.3, 30, 20, and 13.3 μg/kg. Insulin compound was reconstituted with phosphate buffer (0.01 M, a pH of about 7.4) containing 0.1% w/w bovine serum albumin and dosed at 50, 33.3, 21.7, 15, 10, and 6.7 μg/kg. […] Blood samples were collected in heparin tubes for glucose assay. If glucose assay was delayed, the tubes were stored in ice water and re-warmed to room temperature before assay.
Plasma glucose was measured with a glucometer (e.g., One Touch® Basic; Lifescan), which was calibrated at the beginning of each day of use according to the manufacturer's instructions. The potency of the insulin compound conjugate was then calculated relative to the standard curve that was generated for the recombinant human insulin response. Calculations were based upon the assumption that recombinant human insulin has a potency of 27.4 IU/mg.

For data set [2], the system named is chymotrypsin enzyme.
Method: Lyophilized chymotrypsin enzyme was resuspended in 1 mM HCl to a concentration of ˜7.53 U/mL. A 1.53 mL aliquot of each sample was added to sample tubes and 0.850 mL into control tubes. Samples were tested in duplicate along with four control tubes per sample. […] Then 17 μL of chymotrypsin enzyme was added to each sample tube. Five μL of 1 mM HCl was added to each control tube. Immediately following the additions, 200 μL was removed from the sample and the control tubes and placed into 50 μL of 1% TFA previously aliquoted out into centrifuge tubes. This sample serves as T=0.
as §1
The format of data set [3] is physicochemical. Here is the method: Two hundred microliters of 0.1M Phosphate Buffer Saline (PBS, filtered, pH=7.4) was added to a 1 mL conical reaction vial. To this vial, a small amount of sample was added slowly until saturation is observed. Periodically, the solution was vortexed. […] After centrifugation, 10 μL of the sample was removed from the supernatant and diluted in 490 μL buffer (0.1 M PBS). This diluted sample was analyzed via HPLC to determine its' concentration.

Like-named read-outs stand apart in the source and are kept apart here.

These results are taken from US9102758B2, “Insulin-oligomer conjugates, formulations and uses thereof” (priority 2004, dated 2015).

For the substance “HIM2 (R-type zinc complex): R-type zinc complex of HIM2, 1.1% w/w zinc”, the T half with chymotrypsin enzyme [1] (0.3 mg/mL protein) fell in the range of 19 to 21 min.

As to “HIM2 (R-type zinc/protamine complex): R-type zinc complex of HIM2 with protamine”, the T half with chymotrypsin enzyme [1] (0.6 mg/ml protein) lay within 95 to 120 min. The “glucose lowering effect at 30 and 90 minutes post dose” value in the data set on male CF-1 mice is on record as “greater glucose reduction at 30 minutes than 90 minutes”.

As for “HIM2 (T-type zinc complex): T-type zinc complex of HIM2, 0.55% w/w zinc”, the T half in the data set with chymotrypsin enzyme [1] (0.3 mg/mL protein) was in the range of 12 to 15 min.

Turning to “HIM2: human insulin monoconjugate with a modifying moiety coupled at B29”, in the data set with male CF-1 mice (plasma glucose 30 minutes post dose, relative to recombinant human insulin), the “biopotency (MBGA) on complexation with Zn++” value was “not significantly reduced”.

“IN105 (T-type zinc complex): T-type Zn complex of IN105, 1.88% w/w zinc; same zinc content as reaction 9.5.3”: in the data set with chymotrypsin enzyme [2], the T half amounted to 54.8 min.

The term Solubility denotes the dissolved amount per volume that the medium holds. Consider “Reaction 9.3.3: R-type Zn Complex of HIM2 with Protamine at Acidic pH”, for which the “Solubility” value in data set [3] (pH 7.4) was determined as 36.78 mg/mL.

As for “Reaction 9.5.1: T-Type Zn Complex of IN105 Monoconjugate (10 g/L Concentration)”, in data set [3], the “Solubility (mg/mL) in a pH of about 7.4, 0.1M phosphate buffer” value was 80-85 mg/mL.

In the case of “Reaction 9.5.2: T-Type Zn Complex of IN105 Monoconjugate (1 g Scale)”, the “Solubility (mg/mL) in a pH of about 7.4, 0.1M phosphate buffer” value in data set [3] is 10-20 mg/mL.

Turning to “Reaction 9.6.2: R-Type Zn Complex of IN105 Conjugate at 5 g Scale”, in data set [3], the “Solubility” value lay within 10 to 25 mg/mL.
